Data taken from paper PMC10911177, “Exploring the ATG9A interactome uncovers interaction with VPS13A” (Journal of cell science, 2024).

Target: T1, 3×Flag−His6−ATG9A (purified) (UniProt Q7Z3C6 1-839)
T1 construct: ATG9A; also called Flag−ATG9A; 3×Flag−ATG9A
T1 sequence (looked up): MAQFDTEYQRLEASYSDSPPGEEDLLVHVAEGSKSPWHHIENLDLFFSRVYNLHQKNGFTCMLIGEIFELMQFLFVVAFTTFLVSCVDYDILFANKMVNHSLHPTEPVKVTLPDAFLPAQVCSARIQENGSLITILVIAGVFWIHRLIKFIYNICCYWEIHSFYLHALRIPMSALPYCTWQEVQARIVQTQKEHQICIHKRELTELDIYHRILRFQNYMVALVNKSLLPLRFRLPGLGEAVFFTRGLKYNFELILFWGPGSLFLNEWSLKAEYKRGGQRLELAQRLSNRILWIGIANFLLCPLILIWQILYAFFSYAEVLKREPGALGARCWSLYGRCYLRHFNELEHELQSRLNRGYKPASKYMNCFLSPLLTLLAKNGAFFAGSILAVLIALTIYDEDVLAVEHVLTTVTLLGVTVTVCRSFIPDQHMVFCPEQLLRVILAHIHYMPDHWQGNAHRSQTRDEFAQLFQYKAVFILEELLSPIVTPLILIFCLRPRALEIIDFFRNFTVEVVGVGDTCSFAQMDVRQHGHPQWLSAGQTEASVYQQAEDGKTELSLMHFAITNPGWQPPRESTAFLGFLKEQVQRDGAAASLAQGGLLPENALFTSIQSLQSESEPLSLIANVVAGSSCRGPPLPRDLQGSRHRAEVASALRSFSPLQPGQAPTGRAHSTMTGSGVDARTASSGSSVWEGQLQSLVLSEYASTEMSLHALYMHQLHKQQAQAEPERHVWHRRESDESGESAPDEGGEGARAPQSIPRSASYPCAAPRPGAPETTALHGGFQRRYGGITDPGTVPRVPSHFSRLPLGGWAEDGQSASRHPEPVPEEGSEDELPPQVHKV
Assay: co-IP; in vitro IP: 100 μg purified 3×Flag−GFP−VPS13A fragment 4 mixed with 10 μg purified ATG9A at 4°C in 0.002% LMNG:CHS (5:1), GFP-Trap beads, four washes with VPS13 buffer with detergent; immunoblot
Settings: both partners purified

B1: 3×Flag−eGFP−VPS13A fragment 4 (purified) (domain or fragment, human, UniProt Q96RL7 2554-3174, looked up)
chain: VVWETKPKKKARWKPMSVKHTEKLEREFKEYTESSPSEDKVIQLDTNVPVRLTPTGHNMKILQPHVIALRRNYLPALKVEYNTSAHQSSFRIQIYRIQIQNQIHGAVFPFVFYPVKPPKSVTMDSAPKPFTDVSIVMRSAGHSQISRIKYFKVLIQEMDLRLDLGFIYALTDLMTEAEVTENTEVELFHKDIEAFKEEYKTASLVDQSQVSLYEYFHISPIKLHLSVSLSSGREEAKDSKQNGGLIPVHSLNLLLKSIGATLTDVQDVVFKLAFFELNYQFHTTSDLQSEVIRHYSKQAIKQMYVLILGLDVLGNPFGLIREFSEGVEAFFYEPYQGAIQGPEEFVEGMALGLKALVGGAVGGLAGAASKITGAMAKGVAAMTMDEDYQQKRREAMNKQPAGFREGITRGGKGLVSGFVSGITGIVTKPIKGAQKGGAAGFFKGVGKGLVGAVARPTGGIIDMASSTFQGIKRATETSEVESLRPPRFFNEDGVIRPYRLRDGTGNQMLQVMENGRFAKYKYFTHVMINKTDMLMITRRGVLFVTKGTFGQLTCEWQYSFDEFTKEPFIVHGRRLRIEAKERVKSVFHAREFGKIINFKTPEDARWILTKLQEAREPSPSL
notes: VPS13A, human, fragment 4, residues 2554-3174; Subcloned into pcDNA3.1(+); The methods partly write '3×Flag−eGFP−VPS13A' without 'fragment 4'; also called Flag−GFP−VPS13A4; 3×Flag-VPS13A fragment 4
  binding result: binds
